Patent US20230212320A1

Tests used:
[1] = molecular target: Fc2 of PTC039 (IgG1 Fc chain with L351G, T366S, L368A, Y407V) (Homo sapiens (Human)) [IgG part: P0DOX5]; test: SE-HPLC, PTC040 co-expression
[2] = molecular target: Fc2 of PTC039 (IgG1 Fc chain with L351G, T366S, L368A, Y407V) (Homo sapiens (Human)) [IgG part: P0DOX5]; test: SE-HPLC, PTC074 co-expression

Fc-2-2 homo-dimer (%) [1]: 1.5% | Fc-2-2 homo-dimer (%) [2]: 0.96%
Substance: Fc2 of PTC039 (IgG1 Fc chain with L351G, T366S, L368A, Y407V) (from UniProt P0DOX5 218-449)
